The target of this experiment is Vδ1 chain of the γδ TCR on Vδ1+ γδ T cells (human). Put plainly: cell-based or functional assay.

B1: 1245_P01_G06 (antibody, V domains shown)
VH: QVQLVESGGGLVKPGGSLRLSCAASGFTFSDYYMSWIRQAPGKGLEWVSYISSSGSTIYYADSVKGRFTISRDNAKNSLYLQMNSLRAEDTAVYYCARHSWNDAFDVWGQGTLVTVSS
VL: not shown
For the molecule B1, the “T cell degranulation (EC50 µg/ml - 3 donors)” value (“T cell degranulation” for short) turned out to be 0.001 µg/mL.

B2: 1245_P01_E07 (antibody, human IgG1, V domains shown)
VH: QVQLVESGGGLVKPGGSLRLSCAASGFTFSDYYMSWIRQAPGKGLEWVSYISSSGSTIYYADSVKGRFTISRDNAKNSLYLQMNSLRAEDTAVYYCARVDYADAFDIWGQGTLVTVSS
VL: DIQMTQSPSSLSASVGDRVTIACRAGQSIGTYLNWYQQKPGKAPKLLIYVASSLQSGVPSRFSGSGSGTEFTLTISSLQPEDFATYYCQQSYSTLLTFGRGTKVEIK
As to B2, the “Killing assay (EC50 µg/ml - 2 or 3 donors)” value (“Killing assay” below) stood at 0.06 µg/mL.

B3: 1245_P02_G04 (antibody, human IgG1, V domains shown)
VH: QVQLQQSGPGLVKPSQTLSLTCAISGDSVSSKSAAWNWIRQSPSRGLEWLGRTYYRSKWSTDYAASVKSRITINPDTSKNQLSLQLNSVTPEDTAVYYCARTWSGYVDVWGQGTLVTVSS
VL: DIQMTQSPPALSASVGDRVTITCRASQDINDWLAWYQHKPGKAPKLLIYDASSLESGVPSRFSGSGSGTEFTLTISSLQPDDFATYYCQQSYSTPQVTFGQGTRLEIK
As for B3, the “Killing assay” value was 0.1 µg/mL and the “T cell degranulation” value was 0.002 µg/mL.

B4: 1139_P01_E04 (antibody, human IgG1, V domains shown)
VH: QVQLQQSGPGLVKPSQTLSLTCAISGDSVSSNSAAWNWIRQSPSRGLEWLGRTYYRSKWYNDYAVSVRSRITINPDTSKNQFSLQLNSVTPEDTAVYYCARSWNDAFDIWGQGTTVTVSS
VL: DIVMTQSPSTLSASIGDRVTITCRAGQSISTWLAWYQQKPGKAPKLLIYDASSLESGVPLRFSGSGSGTDFTLTISSLQPEDFATYYCQQSYSTPLTFGGGTKVEIK
B4: the “T cell degranulation” value is 0.005 µg/mL.

B5: 1245_P01_G09 (antibody, human IgG1, V domains shown)
VH: QVQLQQSGPGLVKPSQTLSLTCAISGDSVSSNSAAWNWIRQSPSRGLEWLGRTYYGSKWYNEYALSVKSRIIINPDTSKNQFSLQLNSVTPEDTAVYYCARDYYYSMDVWGQGTLVTVSS
VL: DIVMTQSPSTLSASIGDRVTITCRAGQSISTWLAWYQQKPGKAPKLLIYDASSLESGVPLRFSGSGSGTEFTLAISSLQPDDFATYYCQQSYSTPVTFGQGTKVEIK
B5: the “T cell degranulation” value was found to be 0.001 µg/mL.

B6: 1252_P01_C08 (antibody, human IgG1, V domains shown)
VH: EVQLLESGGGLVQPGRSLRLSCAASGFTVSSNYMSWVRQAPGKGLEWVSVIYSGGSTYYADSVKGRFTISRDNSKNTLYLQMNSLRAEDTAVYYCASPIELGAFDIWGQGTLVTVSS
VL: SSYELTQPPSVSVAPGKTARITCGGNNIGSQSVHWYQQKPGQAPMLVIYYDSDRPSGIPERFSGSNSGNTATLTISRVEAGDEADYYCQVWDSSSDHVVFGGGTKLTVL
For the molecule B6, the “Killing assay” value worked out at 0.02 µg/mL.

Values taken from patent EP4218932A2 (GammaDelta Therapeutics Limited, dated 2023).
